Experiments:
Experiment in all cases: cell-based or functional assay
[1] = target: hemagglutinin (HA) of live influenza A/Wisconsin/67/05 (H3N2) virus (influenza A virus A/Wisconsin/67/2005 …)
[2] = target: hemagglutinin (HA) of live influenza A/Solomon Islands/3/06 (H1N1) virus (influenza A virus A/Solomon …)
[3] = target: Hemagglutinin of influenza A/Solomon Islands/3/06 (H1N1) on whole virions (Influenza A virus A/Solomon …)

B1: TCN-537 (3194_D21) (antibody, V domains shown)
VH: QVQLQQWGSGLLKPSETLSLTCAVYGGSFRDDYWTWIRQPPGKGLEWIGEINHSGRTNYNPSLKSRVTISVDTSLKQFSLKVISVTAADTAVYYCARGTSHVSRYFDWLPPTNWFDPWGQGTQVTVSS
VL: DIVLTQSPGTLSLSPGERATLSCRASQSVSSSYLAWYQQKPGQAPRLVMYGAATRATGIPDRFSGSGSGPDFTLTISRLEPEDFAMYYCQQYGNSPITFGQGTRLEIK
[1]
  % Neutralization: 0%
[2]
  % Neutralization: 0%

B2: TCN-536 (5095_N01) (antibody, V domains shown)
VH: QVQLQQWGAGLLKPSETLSLTCAVYGGSFSVSGYYWSWIRQPPGRGLEWIGEISHGGSTNYNPSLKSRVTISVDTTKNQFSLRLSSVTAADTAVYYCARGTDPDTEVYCRVGNCAAFDYWGQGSLVTVSS
VL: EIILAQSPGTLSLSPGERATLSCRASQFVSTRSLAWYQQRPGQAPRLLIYGASSRATGIPDRFSGSGSGTDFTLTISRLEPEDFAVYYCQHYGYSPRYAFGQGSKVEIK
[1]
  % Neutralization: 99.9%
[2]
  % Neutralization: 81.6%

B3: TCN-551 (5243_D01) (antibody, V domains shown)
VH: EVQLVQSGSEVKKPGESLKISCKGSGYSFSNYWIGWVRHMPGKGLEWMGIIYPGDSDTRYSPSFQGQVTMSADKSSSTVYLQWSSLKASDTAIYYCARRGGHSFGYGSGGDTHSEFDSWGQGTLVTVSS
VL: QSVLTQSPSVSAAPGQKVTISCSGSDSNIGDYFVCWYQHLPGKPPQLLIYENNKRPSGIPDRFSGSKSGTSATLGITGIQTGDEADYYCATWDGSLSAWVFGGGTKLTVL
[3]
  % Neutralization: 100%

B4: TCN-538 (3206_O17) (antibody, V domains shown)
VH: QITLKESGPTLVKPTQTLTLTCVFSGFSLSITGVRVGWIRQPPGKALEWLALISWDDEKHYSPSLQSRLTITKDTSKNQVVLTMTNLDPVDTATYYCARSTDRGHVLRYFGWMLPGDAFDVWGQGTMVTVSS
VL: DIVMTQSPDFLPVSLGERATINCKSSQRVLYSSNNKNYLAWYQLKPGQPPKLIIYWASTRESGVPDRFSGSGSGTEFTLTISSLQAEDVAVYYCQQYYSRPYTFGQGTKLEIK
[1]
  % Neutralization: 0%
[2]
  % Neutralization: 21%

B5: TCN-560 (5084_P10) (antibody, V domains shown)
VH: EVQLVESGGGLVQPGGSLRLSCAASGFIFRNYWMSWVRQAPGKGLEWVANIKQDGREKYYVDSLRGRVNISRDNAENSLYLHMNSLRVEDTAVYFCARARMVVVTGDGFDVWGHGTMVTVSS
VL: DIQMTQSPSSLSASVGDRVTITCRASQNIKRYFNWYQQKPGKAPKLLIYAASNLENGVPSRFSGSGSGTDFTLTISSLQPEDFATYYCQQSFSKSWTFGQGTNVDIK
[3]
  % Neutralization: 94%

B6: TCN-523 (5248_A17) (antibody, V domains shown)
VH: QVQLVQSGAEVKKPGSSVKVSCKASGGSFSNYAFSWVRQAPGQGLEWMGGTIPLLGTTNYAQKFQGRVTISADQFTSTAYMELGSLRSEDTAVYYCTRRKMTTAFDSWGQGTLVTVSS
VL: QPVLTQPPSASASLGASVTLTCTLSSAYSNYKVDWYQQRPGKGPRFVMRVGTGGIVGSKGDGIPDRFSVLGSGLNRYLTIKNIQEEDESDYHCGADHGSGSNFVSPYVFGGGTKLTVL
[3]
  % Neutralization: 69%

B7: TCN-554 (5277_M05) (antibody, V domains shown)
VH: QVQLVQSGADLKKPGASVKVSCKASGYTFTDYYIHWVRQAPGQGLEWMGWINPESGDTKYAQKFQGRVTMTRDTSITTAYMELGRLRSDDTAVYYCARDVSTTWSWFAPWGQGTLVTVSS
VL: DIVMTQSPDSLAVSLGERATINCRSSQSIFHNSNNENYLAWYQQKPGQPPKLLIYWASTRESGVPDRFSGSGSGTDFTLTISSLQAEDVAVYFCQQYYNAPLTFGGGTKVEIK
[1]
  % Neutralization: 100%

B8: TCN-554 (5277_M05) (antibody, V domains shown)
VH: QVQLVQSGADLKKPGASVKVSCKASGYTFTDYYIHWVRQAPGQGLEWMGWINPESGDTKYAQKFQGRVTMTRDTSITTAYMELGRLRSDDTAVYYCARDVSTTWSWFAPWGQGTLVTVSS
VL: DIVMTQSPDSLAVSLGERATINCRSSQSIFHNSNNENYLAWYQQKPGQPPKLLIYWASTRESGVPDRFSGSGSGTDFTLTISSLQAEDVAVYFCQQYYNAPLTFGGGTKVEIK
[3]
  % Neutralization: 42%

B9: TCN-534 (5249_B02) (antibody, V domains shown)
VH: QVQLVQSGAEVKKPGSSVKVSCRESGGTFNGYTITWVRQAPGQGLEWMGGIIPMMGTVNYAQKLQGRVTITTDYFTKTAYMDLNNLRSEDTAMYYCVKIRYTGQQLLWGQGTLVTVSS
VL: DIQMTQSPSTLSASIGDRVTITCRASQSIASWLAWYQQKPGKAPKLLIYEAVNLESGVPSRFSGSGSGTDFTLTISSLQPDDFATYFCQHYGTISQTFGGGTKVEIK
[1]
  % Neutralization: 0%
[2]
  % Neutralization: 65.7%

B10: TCN-535 (5246_P19) (antibody, V domains shown)
VH: QVQLVQSGSEVKKPGTSVKVSCTASGSVFTNYGISWVRQAPGQGLEWMGGIIPLFGAAKYAQKFQGRVTITADESTKTVYMELSRLTSKDTAIYFCAKAPRVYEYYFDQWGQGTPVTVSS
VL: EIVLTQSPGTLSLSPGERATLSCRASQSVSSSQLAWYQQKPGQAPRLIIYGASTRATGIPDRFSGSGSGTDFTLTIGRLEPEDFAVFFCQQYSTSPPTFGQGTKVDFK
[1]
  % Neutralization: 0%
[2]
  % Neutralization: 88.6%

B11: TCN-544 (5082_A19) (antibody, V domains shown)
VH: QVQLQESGPGLVKPSETLSLTCTVSRGSIGHYFWSWIRQPPGKGLEWIGYISYSGSTKYNPSLRSRVTISVDTSKNQFSLNLNSVTATDTALYYCAREDYDILTGAGPGMEVWGQGTTVTVSS
VL: QSMLTQPPSASGTPGQRVTISCSGSSSNIGSNTVNWFKHLPGTAPKLLIYRNDLRPSGVPDRFSGSKSGTSASLAISGLQSEDEADYYCATWDDSLNGFYVFGTGTKVTVL
[1]
  % Neutralization: 97%

B12: TCN-545 (5082_I15) (antibody, V domains shown)
VH: QVQLQQWGAGLLKPSETLSLSCAVFGGSFSDYYWTWIRQPPGKGLEWIGEIKHSGRTNYNPSLESRVTISVDTSKNQFSLKLSSVTAADTAIYYCARGTDPDTEGYCRSGSCSAFDFWGQGTLVTVSS
VL: EIVLTQSPGTLSLSPGERATLSCRASHFVNYRSLAWYQQTPGQVPRLLIYGASTRATGIPDRFSGSGSGTDFTLTISRLEPEDFAVYFCQQYGGSPRYTFGQGTRLEIK
[1]
  % Neutralization: 99%
[2]
  % Neutralization: 88%

B13: TCN-543 (5081_G23) (antibody, V domains shown)
VH: QVHLVQSGAEVRKPGDSVKVSCKTSGYTFSTYPVAWVRQVPGQGLEWMGWISTYNGNTNFAQNFQGRVTLTTDTTTNTAYMEVRSLKFDDTAVYYCARVEGSYRDFWNNQNRFDPWGQGTLVTVSS
VL: SYVLTQPPSVSVAPGQTARISCGGSNIGGKSVHWYQQKPGQAPVLVVYDDSGRPSGIPERFSGSNSGDTATLTISRVEAGDEADYFCQVWDNFGGVFGTGTKVTVL
[1]
  % Neutralization: 73%
[2]
  % Neutralization: 98%

B14: TCN-540 (5060_F05) (antibody, V domains shown)
VH: QVQLVQSGGGVVQPGRSLRLSCAASGFTFSSYAMHWVRQAPGKGLEWVAIISYDGNDQYYTDSVKGRFTISRDSSKVYLQMHRLRPEDTAVYYCAKEFETSGYFHGSFDYWGQGILVTVSS
VL: QSALTQPASVSGSPGQSITISCTGTSSDVGGYNYVSWYQQHPGKAPKLLIYEVTNWPSGVSNRFSGSKSGNTASLTISGLQAEDEADYYCSSYAGSSTWVFGGGTRVTVL
[1]
  % Neutralization: 98%
[2]
  % Neutralization: 3%

B15: TCN-539 (5056_A08) (antibody, V domains shown)
VH: QVQLVESGGGVVQPGRSLRLSCAASEITFITYAMHWVRQAPGKGLEWVALISDDGSNKFYADSVKGRFTISRDNSKNTLYLQMNSLRAEDTAAYYCAREGVYFDSGTYRGYFDYWGQETLVTVSS
VL: EIVLTQSPATLSLSPGERATLSCRASQSVSSYLAWYQQKPGQAPRLLIYDASNRATGIPARFSGSGSGTDFTLTISSLEPEDFAVYYCQQRSHWPPITFGQGTRLEIK
[1]
  % Neutralization: 99%

B16: TCN-552 (5249_I23) (antibody, V domains shown)
VH: QVQVVQSGAEVKKPGSSVRVSCQASGGTFMNYAIIWVRRAPGQGLEWMGGIIPVFPTPNYAQMFQGRVTISTDESRSTSFLELTNLRYEDTAVYYCARRIYHGGNSGFDFWGQGTLVTVSS
VL: EIVLTQSPATLSLSPGERATLSCRASQSVGNYLAWYQQKPGQAPRLLIYDSSNRAPGIPARFSGSGSGTDFTLTISSLAPEDFAVYYCQQRSKWPPMYSFGHGTKLEIK
[3]
  % Neutralization: 57%

B17: TCN-555 (5246_L16) (antibody, V domains shown)
VH: QVQLVQSGAEVKRPGSSVKVSCTASGGIFRKNAISWVRQAPGQGLEWMGGIIAVFNTANYAQKFQNRVKITADESGNTAYMELSSLTSDDTAVYYCASHPKYFYGSGSYPDFWGQGTLVTVSS
VL: QSALTQPRSVSGSPGQSITISCTGGSSDIGASNSVSWYQQHPGKAPKLVIFDVTERPSGVPHRFSGSKSGNTASLTVSGLQPDDEADYFCCAYGGKYLVVFGGGTKVTVL
[3]
  % Neutralization: 48%

B18: TCN-563 (5237_B21) (antibody, V domains shown)
VH: QVQLAQSGAEVKRPGSSVKVSCTASGGIFRKNAISWVRQAPGQGLEWMGGIIAVFNTANYAQKFQGRVKITADESGNTAYMELSSLRSDDTAVYYCASHPKYFYGSGSYPDFWGQGTLVTVSS
VL: QSALTQPRSVSGSPGQSVTISCTGSSSDVGASNSVSWYQQHPGKAPKLVIYDVTERPSGVPHRFSGSKSGNTASLTVSGLQPEDEADYFCCAYGGKYLVVFGGGTKVTVL
[3]
  % Neutralization: 78%

B19: TCN-553 (5261_C18) (antibody, V domains shown)
VH: QVQVVQSGTEVKKPGSSVKVSCQTSGGRFMSYAITWVRQAPGQGLEWMGGIVPVFGTANYAQKFQGRVTITTDDSTRTAYMELSSLRSEDTAVYYCGFRYGSGYGFDSWGQGTLVTVSS
VL: EIVLTQSPGTLSLSPGERATLSCRASQSVSSSYLAWYQKKPGQAPRLLIYGASTRATGIPDRFTGSGSGTDFTLSISRLEPEDFAVYYCQHFGTSVFTFGGGTKVEIK
[3]
  % Neutralization: 87%

B20: TCN-550 (5096_F06) (antibody, V domains shown)
VH: QVQLQESGPGLVKPSETLSLTCTVSGASINSHYWSWIRQPPGKGLEWIGYVYYSGSTTYNPSLKSRVTLSVDTSKNQFSLNLSSVTAADTAFYYCARHPYDVLTGSGDWFDPWGQGTLVTVSS
VL: SYVLTQAPSVSVAPGQTARITCGGNAIGSKKVHWYQHKAGQAPVLVVYDDTDRPSGIPERFSGSNSWSTATLTINRVEAGDEADYYCQVWDFTIDHVVFGGGTKLTVL
[1]
  % Neutralization: 100%
